Reference: article PMC6827426 (Translational Vision Science & Technology, 2019)

molecular target: T1, vascular endothelial growth factor (VEGF) (Homo sapiens, UniProt P15692-4); assay: SPR; Biacore T200; VEGF immobilised, Fabs as analyte; settings: both partners purified
T1 construct: vascular endothelial growth factor (VEGF-A); The SPR paragraph says only 'immobilized VEGF'; also called recombinant human VEGF
T1 sequence (P15692 whole entry): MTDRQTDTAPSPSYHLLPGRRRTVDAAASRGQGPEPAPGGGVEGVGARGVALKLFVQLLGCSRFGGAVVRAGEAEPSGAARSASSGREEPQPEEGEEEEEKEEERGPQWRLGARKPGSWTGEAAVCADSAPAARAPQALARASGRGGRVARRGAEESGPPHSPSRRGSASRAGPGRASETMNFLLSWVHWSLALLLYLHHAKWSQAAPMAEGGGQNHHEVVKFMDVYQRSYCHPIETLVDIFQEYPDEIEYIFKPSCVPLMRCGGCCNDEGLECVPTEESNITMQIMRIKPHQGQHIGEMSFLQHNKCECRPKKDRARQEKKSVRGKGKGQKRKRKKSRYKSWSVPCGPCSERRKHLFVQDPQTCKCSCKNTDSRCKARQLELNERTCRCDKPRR

Row | Binder | Kd
1 | RBZ-HI high (Fab, V domains shown, as the light chain of m1 (ranibizumab) before CDR-L1; as the light chain of m1 (ranibizumab) between CDR-L1 and CDR-L2; CDR-L2, changed from FTSSLHS of ranibizumab; as the light chain of m1 (ranibizumab) after CDR-L2; as the heavy chain of m1 (ranibizumab Fab), unchanged; Hydrophobicity variant; source: E. coli, 10 L fermentation, purified (Protein G-Sepharose, cation exchange Hitrap SP HP)) VH: EVQLVESGGGLVQPGGSLRLSCAASGYDFTHYGMNWVRQAPGKGLEWVGWINTYTGEPTYAADFKRRFTFSLDTSKSTAYLQMNSLRAEDTAVYYCAKYPYYYGTSHWYFDVWGQGTLVTVSS VL: DIQLTQSPSSLSASVGDRVTITCSVSQVISSWLAWYQQKPGKAPKVLIYFASSLQTGVPSRFSGSGSGTDFTLTISSLQPEDFATYYCQQYSTVPWTFGQGTKVEIK | < 5 nM
2 | RBZ+7 (Fab, V domains shown, as the light chain of m1 (ranibizumab) before CDR-L1; as the light chain of m1 (ranibizumab) between CDR-L1 and CDR-L2; CDR-L2, changed from FTSSLHS of ranibizumab; as the light chain of m1 (ranibizumab) after CDR-L2; as the heavy chain of m1 (ranibizumab Fab), unchanged; Charge variant, relative charge +7 against ranibizumab; also called TA_3; source: E. coli, 10 L fermentation, purified …) VH: EVQLVESGGGLVQPGGSLRLSCAASGYDFTHYGMNWVRQAPGKGLEWVGWINTYTGEPTYAADFKRRFTFSLDTSKSTAYLQMNSLRAEDTAVYYCAKYPYYYGTSHWYFDVWGQGTLVTVSS VL: DIQLTQSPSSLSASVGDRVTITCRARQGIRNYLNWYQQKPGKAPKVLIYKTSRRHSGVPSRFSGSGSGTDFTLTISSLQPEDFATYYCQQYSTVPWTFGQGTKVEIK | < 5 nM

Second part, the binder after the results:

Row | Kd | Binder
3 | < 5 nM | RBZ–3 (Fab, V domains shown, as the light chain of m1 (ranibizumab) before CDR-L1; CDR-L1, same as ranibizumab; as the light chain of m1 (ranibizumab) between CDR-L1 and CDR-L2; CDR-L2, changed from FTSSLHS of ranibizumab; as the light chain of m1 (ranibizumab) after CDR-L2; as the heavy chain of m1 (ranibizumab Fab), unchanged; Charge variant, relative charge -3 against ranibizumab; changes only in CDR-L2; also called TA_2; …) VH: EVQLVESGGGLVQPGGSLRLSCAASGYDFTHYGMNWVRQAPGKGLEWVGWINTYTGEPTYAADFKRRFTFSLDTSKSTAYLQMNSLRAEDTAVYYCAKYPYYYGTSHWYFDVWGQGTLVTVSS VL: DIQLTQSPSSLSASVGDRVTITCSASQDISNYLNWYQQKPGKAPKVLIYDTSDLESGVPSRFSGSGSGTDFTLTISSLQPEDFATYYCQQYSTVPWTFGQGTKVEIK
4 | < 5 nM | RBZ-HI low (Fab, V domains shown, as the light chain of m1 (ranibizumab) before CDR-L1; as the light chain of m1 (ranibizumab) between CDR-L1 and CDR-L2; CDR-L2, changed from FTSSLHS of ranibizumab; as the light chain of m1 (ranibizumab) after CDR-L2; as the heavy chain of m1 (ranibizumab Fab), unchanged; Hydrophobicity variant; source: E. coli, 10 L fermentation, purified (Protein G-Sepharose, cation exchange Hitrap SP HP)) VH: EVQLVESGGGLVQPGGSLRLSCAASGYDFTHYGMNWVRQAPGKGLEWVGWINTYTGEPTYAADFKRRFTFSLDTSKSTAYLQMNSLRAEDTAVYYCAKYPYYYGTSHWYFDVWGQGTLVTVSS VL: DIQLTQSPSSLSASVGDRVTITCQASQDISNSLNWYQQKPGKAPKVLIYSTSNLHSGVPSRFSGSGSGTDFTLTISSLQPEDFATYYCQQYSTVPWTFGQGTKVEIK
